Test system: Ovalbumin-specific OTII T cells
Experiment: Adoptive transfer of ovalbumin-specific OTII T cells, Foxp3 expression and total Treg (Example 5)
Assay type: in vivo, mice
Conditions: OTII T cells adoptively transferred prior to treatment
Description: However, expansion of antigen-specific Treg can be more desirable than expansion of total Treg. The ability of ImmTOR plus antigen combined with IL-2 mutein to induce and/or expand antigen-specific Treg was evaluated. Ovalbumin-specific OTII T cells were adoptively transferred into mice prior to treatment with ovalbumin and ImmTOR and/or IL-2 mutein.

B1: ovalbumin (protein, UniProt P01012 2-386, looked up)
Ovalbumin: GSIGAASMEFCFDVFKELKVHHANENIFYCPIAIMSALAMVYLGAKDSTRTQINKVVRFDKLPGFGDSIEAQCGTSVNVHSSLRDILNQITKPNDVYSFSLASRLYAEERYPILPEYLQCVKELYRGGLEPINFQTAADQARELINSWVESQTNGIIRNVLQPSSVDSQTAMVLVNAIVFKGLWEKAFKDEDTQAMPFRVTEQESKPVQMMYQIGLFRVASMASEKMKILELPFASGTMSMLVLLPDEVSGLEQLESIINFEKLTEWTSSNVMEERKIKVYLPRMKMEEKYNLTSVLMAMGITDVFSSSANLSGISSAESLKISQAVHAAHAEINEAGREVVGSAEAGVDAASVSEEFRADHPFLFCIKHIATNAVLFFGRCVSP
notes: model antigen administered to mice
  percentage of Foxp3+ OTII cells: ~6%
